Holding throughout (assay): SPOT array
Assay [1] addresses T1, Boi1 SH3 (BOI1_YEAST), P38041.
T1 chain: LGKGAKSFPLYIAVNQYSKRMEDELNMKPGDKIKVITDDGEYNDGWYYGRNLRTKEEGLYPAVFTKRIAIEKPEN

Assay [2] deals with T2, Boi2 SH3 (BOI2_YEAST), P39969.
T2 chain: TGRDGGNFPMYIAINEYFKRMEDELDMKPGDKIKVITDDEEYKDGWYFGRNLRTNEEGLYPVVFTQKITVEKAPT

Assay [3] deals with T3, Myo5 SH3 (MYO5_YEAST), Q04439.
T3 chain: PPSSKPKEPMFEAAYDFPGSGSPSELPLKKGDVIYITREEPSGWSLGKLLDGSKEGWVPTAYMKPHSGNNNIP

For assay [4], the target named is T4, Rvs167 SH3 (RV167_YEAST), P39743.
T4 chain: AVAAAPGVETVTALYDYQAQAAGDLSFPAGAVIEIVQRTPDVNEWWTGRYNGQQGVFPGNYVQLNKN

In assay [5] the target is Sho1 SH3 (SHO1_YEAST), P40073.
The target of assay [6] is T5, Yfr024 SH3 (LSB3_YEAST), P43603.
T5 chain: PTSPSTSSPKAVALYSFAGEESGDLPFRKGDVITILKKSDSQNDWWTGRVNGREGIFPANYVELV

The target of assay [7] is T6, Yhr016c SH3 (YSC84_YEAST), P32793.
T6 chain: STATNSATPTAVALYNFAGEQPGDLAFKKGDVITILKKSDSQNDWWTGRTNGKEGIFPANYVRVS

The source of these data is article PMC314469, “Protein Interaction Networks by Proteome Peptide Scanning” (PLoS Biology, 2004).

Sho1 SH3 (SHO1_YEAST), P40073, sequence (P40073 295-366): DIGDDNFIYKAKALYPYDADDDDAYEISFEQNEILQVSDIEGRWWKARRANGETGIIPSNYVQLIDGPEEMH

With EEEAKSVPPIPADQ [YOL027C 550-563], the normalised SPOT signal, Boehringer light units (BLU); mean over the file's lines of this peptide in assay [1] was 114; in assay [2], 4.5; in assay [3], 29.4; in assay [4] it was 42.8; in assay [5] it was 10.6; in assay [6] it was 0. The molecule further came in with a normalised SPOT signal, Boehringer light units (BLU); mean over the file's lines of this peptide in assay [7] of 56.7.

For EDLVKKPPFIPSPT [YDR219C 208-221], the normalised SPOT signal, Boehringer light units (BLU); mean over the file's lines of this peptide in assay [1] came to 40.9; in assay [2], 17.3; in assay [3], 756; in assay [4], 13.6; in assay [5], 17.6; in assay [6], 0. The molecule further displayed a normalised SPOT signal, Boehringer light units (BLU); mean over the file's lines of this peptide in assay [7] of 2.1.

For DSVLRQKPDKPRPI [YMR032W 380-393], the normalised SPOT signal, Boehringer light units (BLU); mean over the file's lines of this peptide in assay [1] was found to be 1240; in assay [2], 10.2; in assay [3], 135; in assay [4], 43.8; in assay [5], 26.5; in assay [6], 114. This molecule gave a normalised SPOT signal, Boehringer light units (BLU); mean over the file's lines of this peptide in assay [7] of 9.2.

As to DYRPKSIPSPPNGI [YML034W 511-524], the normalised SPOT signal, Boehringer light units (BLU); mean over the file's lines of this peptide in assay [1] stood at 75.6; in assay [2] it was 6; in assay [3], 154; in assay [4], 19.7; in assay [5] it was 23.7; in assay [6] it was 38.5. The same molecule registered a normalised SPOT signal, Boehringer light units (BLU); mean over the file's lines of this peptide in assay [7] of 36.2.

Regarding DTYARNNPDFPPQN [YDR164C 226-239], the normalised SPOT signal, Boehringer light units (BLU); mean over the file's lines of this peptide was 118 in assay [1]; 31.6 in assay [2]; 138 in assay [3]; 46.3 in assay [4]; 4.9 in assay [5]; 17.2 in assay [6]. Further, the normalised SPOT signal, Boehringer light units (BLU); mean over the file's lines of this peptide in assay [7] is 39.1.

On to EELARVTPLTPKEY [YDL195W 1179-1192], for which the normalised SPOT signal, Boehringer light units (BLU); mean over the file's lines of this peptide in assay [1] turned out to be 65.7; in assay [2] it was 41.9; in assay [3], 182; in assay [4], 75.6; in assay [5], 54.5; in assay [6] it was 25.2. In assay [7], this molecule gave a normalised SPOT signal, Boehringer light units (BLU); mean over the file's lines of this peptide of 11.8.

For the molecule EFDEKLPPKKPAGP [YMR072W 109-122], the normalised SPOT signal, Boehringer light units (BLU); mean over the file's lines of this peptide was 40.4 in assay [1]; 2 in assay [2]; 87.3 in assay [3]; 32.7 in assay [4]; 38.9 in assay [5]; 72.6 in assay [6]. Moreover, in assay [7], the normalised SPOT signal, Boehringer light units (BLU); mean over the file's lines of this peptide was found to be 16.2.

As for DSYSRSRPTRPLGY [YNL165W 293-306], the normalised SPOT signal, Boehringer light units (BLU); mean over the file's lines of this peptide came to 13600 in assay [1]; 37.1 in assay [2]; 261 in assay [3]; 354 in assay [4]; 52.1 in assay [5]; 2260 in assay [6]. The normalised SPOT signal, Boehringer light units (BLU); mean over the file's lines of this peptide in assay [7] was found to be 177.

Regarding EEKVKRTPPLPPVP [YOL093W 10-23], the normalised SPOT signal, Boehringer light units (BLU); mean over the file's lines of this peptide in assay [1] is 108; in assay [2], 17.7; in assay [3] it was 587; in assay [4] it was 125; in assay [5] it was 48.2; in assay [6], 99. In addition, the normalised SPOT signal, Boehringer light units (BLU); mean over the file's lines of this peptide in assay [7] amounted to 45.9.

As for DVNHRYPPMAPTTV [YPR008W 508-521], the normalised SPOT signal, Boehringer light units (BLU); mean over the file's lines of this peptide was 57.4 in assay [1]; 34 in assay [2]; 176 in assay [3]; 52.3 in assay [4]; 39.1 in assay [5]; 21.3 in assay [6]. In assay [7], this molecule showed a normalised SPOT signal, Boehringer light units (BLU); mean over the file's lines of this peptide of 15.7.

For the molecule EEQVKSNPNRPIYW [YGR234W 292-305], the normalised SPOT signal, Boehringer light units (BLU); mean over the file's lines of this peptide was determined as 149 in assay [1]; 23.1 in assay [2]; 110 in assay [3]; 13.3 in assay [4]; 24.8 in assay [5]; 140 in assay [6]. The normalised SPOT signal, Boehringer light units (BLU); mean over the file's lines of this peptide in assay [7] was found to be 30.2.

EEQVKEKPNEPEGK [YLL021W 188-201]: the normalised SPOT signal, Boehringer light units (BLU); mean over the file's lines of this peptide in assay [1] turned out to be 25.7; in assay [2] it was 28.7; in assay [3], 134; in assay [4], 22.8; in assay [5], 30.7; in assay [6], 0. The molecule further registered a normalised SPOT signal, Boehringer light units (BLU); mean over the file's lines of this peptide in assay [7] of 23.2.

In the case of DRLSKIKPFLPQSI [YLR247C 271-284], the normalised SPOT signal, Boehringer light units (BLU); mean over the file's lines of this peptide in assay [1] amounted to 804; in assay [2] it was 16.3; in assay [3], 226; in assay [4] it was 154; in assay [5], 237; in assay [6], 136. This molecule also showed a normalised SPOT signal, Boehringer light units (BLU); mean over the file's lines of this peptide in assay [7] of 37.2.

As to DRKNRAPPQRPRFN [YER131W 91-104], the normalised SPOT signal, Boehringer light units (BLU); mean over the file's lines of this peptide is 4240 in assay [1]; 24.1 in assay [2]; 2430 in assay [3]; 332 in assay [4]; 134 in assay [5]; 3740 in assay [6]. Further, the normalised SPOT signal, Boehringer light units (BLU); mean over the file's lines of this peptide in assay [7] stood at 162.
